Assay results: patent publication US11584938B2, “Plant EPSPS mutant containing L195P and S247G mutations and encoding gene and use thereof” (GEVOTO LLC, priority 2017, dated 2023)

Tested on: transgenic rice plants
Test: glyphosate resistance of the EPSPS mutant in transgenic rice plants sprayed with Roundup 41% ammonium glyphosate
Assay type: in vivo, rice (Nipponbare)
Procedure, shortened: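 EPSPS mutant genes were cloned into pGVP1 and introduced into Nipponbare rice embryo-derived calluses via Agrobacterium EHA105 (OD 0.2, 10 min infection, 2–3 days co-culture at 25 °C in the dark). Calluses went through recovery, two 14-day screening rounds at 30 °C, two differentiation rounds and rooting to regenerate transgenic plants.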

[1] = 1× dosage 1060 g/hectare glyphosate sprayed, recorded on 10th day
[2] = 2× dosage 2120 g/hectare sprayed to plants surviving 1×, recorded 10 days later
[3] = 5× dosage 5300 g/hectare sprayed to plants surviving 2×, recorded 10 days later
[4] = 20× dosage 21200 g/hectare sprayed to plants surviving 5×, recorded 10 days later

Molecule | %++&+++ (percentage of plant having medium and high glyphosate resistance to the total number of plants observed) [1] [%] | number of plants denoted by + (low glyphosate resistance) [1] | number of plants denoted by ++ (medium glyphosate resistance) [1] | number of plants denoted by +++ (high glyphosate resistance) [1] | number of plants denoted by − (no glyphosate resistance) [1] | glyphosate resistance / survival of the rice transformed by the EPSPS, in words (1× glyphosate dosage) | %++&+++ (percentage of plant having medium and high glyphosate resistance to the total number of plants observed) [2] [%] | number of plants denoted by + (low glyphosate resistance) [2] | number of plants denoted by ++ (medium glyphosate resistance) [2] | number of plants denoted by +++ (high glyphosate resistance) [2] | number of plants denoted by − (no glyphosate resistance) [2] | glyphosate resistance / survival of the rice transformed by the EPSPS, in words (2× glyphosate dosage) | &++&+++ (percentage of plant having medium and high glyphosate resistance to the total number of plants observed) [3] [%] | number of plants denoted by + (low glyphosate resistance) [3] | number of plants denoted by ++ (medium glyphosate resistance) [3] | number of plants denoted by +++ (high glyphosate resistance) [3] | number of plants denoted by − (no glyphosate resistance) [3] | &++&+++ (percentage of plant having medium and high glyphosate resistance to the total number of plants observed) [4] [%] | number of plants denoted by + (low glyphosate resistance) [4] | number of plants denoted by ++ (medium glyphosate resistance) [4] | also measured
R1: rice EPSPS mutant, SEQ ID NO: 30, mutation L214(195)P (protein) MASNAAAAAAKAEEIVLQPIREISGAVQLPGSKSLSNRILLLSALSEGTTVVDNLLNSEDVHYMLEALKALGLSVEADKVAKRAVVVGCGGKFPVEKDAKEEVQLFLGNAGTAMRPLTAAVTAAGGNATYVLDGVPRMRERPIGDLVVGLKQLGADVDCFLGTECPPVRVKGIGGLPGGKVKLSGSISSQYLSALLMAAPLALGDVEIEIIDKPISIPYVEMTLRLMERFGVKAEHSDSWDRFYIKGGQKYKSPGNAYVEGDASSASYFLAGAAITGGTVTVQGCGTTSLQGDVKFAEVLEMMGAKVTWTDTSVTVTGPPREPYGKKHLKAVDVNMNKMPDVAMTLAVVALFADGPTAIRDVASWRVKETERMVAIRTELTKLGASVEEGPDYCIITPPEKLNITAIDTYDDHRMAMAFSLAACADVPVTIRDPGCTRKTFPNYFDVLSTFVRN | 63.2 | 1 | 1 | 11 | 6 | obviously superior to that of the rice seedlings transformed by R0 | 55.2 | 3 | 10 | 1 | 10 | some of the transgenic rice seedlings transformed by R1 and R4 still survived | 4.2 | 9 | 1 | 0 | 14 | 0.0 | 4 | 0 | glyphosate resistance / survival of the rice transformed by the EPSPS, in words (5× glyphosate dosage): some of the transgenic rice seedlings transformed by R1 and R4 still survived; number of plants denoted by +++ (high glyphosate resistance) [4]: 0; number of plants denoted by − (no glyphosate resistance) [4]: 20; glyphosate resistance / survival of the rice transformed by the EPSPS, in words (20× glyphosate dosage): some of the transgenic rice seedlings transformed by R1 and R4 still survived
R3: rice EPSPS mutant, SEQ ID NO: 34, mutations L214(195)P and P116(101)S (protein) MASNAAAAAAKAEEIVLQPIREISGAVQLPGSKSLSNRILLLSALSEGTTVVDNLLNSEDVHYMLEALKALGLSVEADKVAKRAVVVGCGGKFPVEKDAKEEVQLFLGNAGTAMRSLTAAVTAAGGNATYVLDGVPRMRERPIGDLVVGLKQLGADVDCFLGTECPPVRVKGIGGLPGGKVKLSGSISSQYLSALLMAAPLALGDVEIEIIDKPISIPYVEMTLRLMERFGVKAEHSDSWDRFYIKGGQKYKSPGNAYVEGDASSASYFLAGAAITGGTVTVQGCGTTSLQGDVKFAEVLEMMGAKVTWTDTSVTVTGPPREPYGKKHLKAVDVNMNKMPDVAMTLAVVALFADGPTAIRDVASWRVKETERMVAIRTELTKLGASVEEGPDYCIITPPEKLNITAIDTYDDHRMAMAFSLAACADVPVTIRDPGCTRKTFPNYFDVLSTFVRN | 76.8 | 18 | 39 | 24 | 1 | had relatively high resistance to glyphosate | 7.5 | 59 | 12 | 10 | 1 | had relatively high resistance to glyphosate | 13.4 | 59 | 11 | 0 | 12 | 7.3 | 28 | 6 | number of plants denoted by +++ (high glyphosate resistance) [4]: 0; number of plants denoted by − (no glyphosate resistance) [4]: 48
R2: rice EPSPS mutant, SEQ ID NO: 32, merely containing the mutation P116(101)S; control (protein) MASNAAAAAAKAEEIVLQPIREISGAVQLPGSKSLSNRILLLSALSEGTTVVDNLLNSEDVHYMLEALKALGLSVEADKVAKRAVVVGCGGKFPVEKDAKEEVQLFLGNAGTAMRSLTAAVTAAGGNATYVLDGVPRMRERPIGDLVVGLKQLGADVDCFLGTECPPVRVKGIGGLPGGKVKLSGSISSQYLSALLMAAPLALGDVEIEIIDKLISIPYVEMTLRLMERFGVKAEHSDSWDRFYIKGGQKYKSPGNAYVEGDASSASYFLAGAAITGGTVTVQGCGTTSLQGDVKFAEVLEMMGAKVTWTDTSVTVTGPPREPYGKKHLKAVDVNMNKMPDVAMTLAVVALFADGPTAIRDVASWRVKETERMVAIRTELTKLGASVEEGPDYCIITPPEKLNITAIDTYDDHRMAMAFSLAACADVPVTIRDPGCTRKTFPNYFDVLSTFVRN | 81.0 | 9 | 10 | 37 | 2 | had relatively high resistance to glyphosate | 26.8 | 17 | 18 | 14 | 9 | had relatively high resistance to glyphosate | 3.4 | 40 | 2 | 0 | 16 | 0.0 | 1 | 0 | number of plants denoted by +++ (high glyphosate resistance) [4]: 0; number of plants denoted by − (no glyphosate resistance) [4]: 57
